From the nanobody polyreactivity screen of Harvey et al. (2022)

Test: yeast display, Sf9 membrane polyspecificity reagent, FACS + sequencing; frameworks hold sequencing errors
Outline: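 A synthetic nanobody library was expressed on Saccharomyces cerevisiae BJ5465 by galactose induction for 36–48 hours. The library was stained for 1 hour at 4 °C with 10% biotinylated, detergent-solubilized Sf9 membrane reagent and enriched with streptavidin microbeads before FACS. Low and high (top ~1%) gates were set on anti-HA fluorescence for expression and streptavidin fluorescence for reagent binding, and each polyreactivity label reflects the gate of origin.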

Sequence: QVQLVESGGGLVQAGGSLRLSCAASGSTFVRNAMGWYRQAPGKERELVAGISTGDNTYYADSVKGRFTISRDNAKNTVYLQMNSLKPEDTAVYYCNADVYTEYDYWGQGTQVTVSS
- polyreactivity (PSR sort gate): low polyreactivity

Sequence: QVQLVESGGGLVQAGGSLRLSCAASGSTFVRNAMGWYRQEPGKERELVANISSGGGTKYADSVKGRFTISRDNAQNTVYLQMNSLKPEDTAVYYCAKRTIYSGRFYYWGQGTQVTVSS
- polyreactivity (PSR sort gate): high polyreactivity

Sequence: QVQLVESGGGLVQAGGSLRLSCAASGSTFVRNARGWYRQAPGKERELVAAISRSGGRTYYADSVKGRFTISRDNAKNTVYLQMNSLKPEDTAVYYCAADGKSGYDYWGQGTQVTVSS
- polyreactivity (PSR sort gate): high polyreactivity

Sequence: QVQLVESGGGLVQAGGSLRLSCAASGSTFVRYAMGWYRLAPGKERELVAAIAKSGGSTYYADSVKGRFTISRDIAKNTVYLQMNSLKPEDTAVDYCNSDVYKNSKVRIMGYWGLGTQVTVSS
- polyreactivity (PSR sort gate): low polyreactivity

Sequence: QVQLVESGGGLVQAGGSLRLSCAASGSTFVRYAMGWYRQAPGKERELVAAISKSGGSTYYADSVKGRFTISRDNAKNTVYLQMNSLKPEDTAVYFCNADVYKNSKFRIMGYWGQGTQVTVSS
- polyreactivity (PSR sort gate): low polyreactivity

Sequence: QVQLVESGGGLVQAGGSLRLSCAASGSTFVRYAMGWYRQAPGKERELVAAISNGGNTYYADSVKGRFTISHDNAKNTVYLQMNSLKPEDTAVYYCNKGYVYGHEYWGQGTQVTVSS
- polyreactivity (PSR sort gate): high polyreactivity

Sequence: QVQLVESGGGLVQAGGSLRLSCAASGSTFVRYVMGWYRQAPGKERELVAAIRYRGGSTYYADSVKGRFTISRDNAKNTVYLQMNSLKPEDTAVYYCATDWRRYTKQYGYWGQGTQVSVSS
- polyreactivity (PSR sort gate): high polyreactivity

Sequence: QVQLVESGGGLVQAGGSLRLSCAASGSTFVSNAMGWYRPAPGKERELVAAISSSGGRTSYADSVKGRFTISRDNAKNTVYLQMNSLKPEDTAVYYCAARFKSVDYVQYYYWGQGTQVTVSS
- polyreactivity (PSR sort gate): low polyreactivity

Sequence: QVQLVESGGGLVQAGGSLRLSCAASGSTFVSNAMGWYRQAPGKERELVAGITFSGGSTYYADSVKGRFTISRDNAKNTVYLQMNSLKPEDTAVYYCAAEFHWWYAGYDYGYWGQGTQVTASS
- polyreactivity (PSR sort gate): low polyreactivity

Sequence: QVQLVESGGGLVQAGGSLRLSCAASGSTFVSSAMGWYRQAPGKERELVARITWNGGNTYADSVKGRFTISRDNAKNTVYLQMNSLKPEDTAVYYCSTDYVVGFYYWGQGTQVTVSS
- polyreactivity (PSR sort gate): low polyreactivity

Sequence: QVQLVESGGGLVQAGGSLRLSCAASGSTFVSYAMGWYRQAPGKEREFVAAITWSGGSTYYADSVKGRFTISRDNAKNTVYLQMNRLKPEDTAVYYFARPYRGSPRYYYWGQGTQVTVSS
- polyreactivity (PSR sort gate): high polyreactivity

Sequence: QVQLVESGGGLVQAGGSLRLSCAASGSTFVTNAMGWYSQAPGKEREFVAAISNSSGSTYYADSVKGRFTISRDNAKNTVYLQMNSLKPEDTAVYYCNATPDDWLQEDYWGQGTQVTVSS
- polyreactivity (PSR sort gate): low polyreactivity

Sequence: QVQLVESGGGLVQAGGSLRLSCAASGSTFVTYAMGWYRQAPGKERELVAAITTSGGSTYYADSVKGRFTISRANAMNTVYLQMNSLKPEDTAVYYCIAGFEYTQEYDYWGQGTQVTVSS
- polyreactivity (PSR sort gate): low polyreactivity

Sequence: QVQLVESGGGLVQAGGSLRLSCAASGSTFVVNAMAWYRQAPGKERELVAVISYSGDSTYYADSVKGRFTISRDNAKNTVYLQMNSLKPEDSAVYYCNADYYDESNWGQGTQVTVSS
- polyreactivity (PSR sort gate): low polyreactivity

Sequence: QVQLVESGGGLVQAGGSLRLSCAASGSTFVVNTMGWYRQAPGKERELVATISDIGSSTDYADSVKGRFTISRDNAKNTVYLQMNSLKPEDTAVYYCAASIDDIITDDFYWVSWAYYYWGQGTQVTVSS
- polyreactivity (PSR sort gate): low polyreactivity

Sequence: QVQLVESGGGLVQAGGSLRLSCAASGSTFVVNVMGWYRQAPGNEMELVAAITYRSGSTYYADSVKGRFTISRDNEKNTVYLQMNSLNPEDSAVYYCAAGYYSRYYEAFEYYYWGQGTQVTVSS
- polyreactivity (PSR sort gate): high polyreactivity

Sequence: QVQLVESGGGLVQAGGSLRLSCAASGSTFVVYAMGWSRQAPGKERELVAAISTSDTSTYYADSVKGRFTISRDNAKNTVYLQMNSLKPEDTAVYDCAADGTYVYINEYEYWGQGTQVTVSS
- polyreactivity (PSR sort gate): low polyreactivity

Sequence: QVQLVESGGGLVQAGGSLRLSCAASGSTFVVYAMGWYRQAPGKERELVAAISYRAGITYYADSVKGRFTISRDNAKNTVYLQMNSLKPEDTAVYYWAADRYYGVGSGYWGQGTQVTVSS
- polyreactivity (PSR sort gate): high polyreactivity

Sequence: QVQLVESGGGLVQAGGSLRLSCAASGSTFVVYAMGWYRQAPGKERELVAAITTSDDSTYYADSVKGRFTISRDNAKNTVYLQMNSLKPEDTAVYYCAATLRWQDGYWGQGTQVTVSS
- polyreactivity (PSR sort gate): low polyreactivity

Sequence: QVQLVESGGGLVQAGGSLRLSCAASGSTFVVYAMGWYRQAPGKERELVASISSGDSTTYADSVKGRFTISRDNAKNTVYLQMNSLKPEDTAVYYCNADYAYYLDVYSPYDSWGQGTQVTVSS
- polyreactivity (PSR sort gate): low polyreactivity

Sequence: QVQLVESGGGLVQAGGSLRLSCAASGSTFVWYAMGWYRQAPGKERELVAAISSGGSTNYADSVKGRFTISRDNAKNTVYLQMNSLKPEDTAVYYCAAKAYFSSYWRWRGAMDHWGQGTQVTVSS
- polyreactivity (PSR sort gate): low polyreactivity

Sequence: QVQLVESGGGLVQAGGSLRLSCAASGSTFVYAMAWSRQAPGKERELVAAIRLRSGSTYYADSVKGRFTISRDNAKNTVYLQMNSLKPEDTAVYYCAAAIQSSKVSVKFGYWGQGTQVTVSS
- polyreactivity (PSR sort gate): high polyreactivity

Sequence: QVQLVESGGGLVQAGGSLRLSCAASGSTFVYAMGWYRQAPGKERELVAAITTGDSTYYADSVKGRFTISRDNAKNTVYLQMNSLKPEDTAVYYCAAQWYTRYGEYGYWGQGTQVTVSS
- polyreactivity (PSR sort gate): low polyreactivity

Sequence: QVQLVESGGGLVQAGGSLRLSCAASGSTFVYNAMGGYSQAPGKERELGASISRGGGITYYADSVKGRFTISRDNAKNTVYLQMNSLKPEDTAVYYCAKTKGYRGHYYYWGQGTQVTVSS
- polyreactivity (PSR sort gate): high polyreactivity

Sequence: QVQLVESGGGLVQAGGSLRLSCAASGSTFVYNAMGWYRQAPGKERELVAAITVIGGRTYYADSVKGRFTISRDNAKNTVYLQMNSLKPEDTAVYYCNADATESIGYYDEYEYWGQGTQVTVSS
- polyreactivity (PSR sort gate): low polyreactivity

Sequence: QVQLVESGGGLVQAGGSLRLSCAASGSTFVYNDMGWNRQAPGKEREFVAAITYSGSTYYADSVKGRFTISRDNAKNTVYLQMNSLKPEDTAVYYCAAEYVWRFEYWGQGTQVTVSS
- polyreactivity (PSR sort gate): low polyreactivity

Sequence: QVQLVESGGGLVQAGGSLRLSCAASGSTFVYNTMGWSRQAPGKERELVADITWRGASTYYADSVKGRFTISRDNAKNTVYLQMNSLKPEDTAVYYCAADYYSATGSYAYDYWGQGTQVTVSS
- polyreactivity (PSR sort gate): low polyreactivity

Sequence: QVQLVESGGGLVQAGGSLRLSCAASGSTFVYNVMGWYRQAPGKERELVAAITSGVRTYYADSVKGRFTISRDNAMNTVYLQMNSLKPEDTAVYYCATGLRYAKYYYWGQGTQVTVSS
- polyreactivity (PSR sort gate): high polyreactivity

Sequence: QVQLVESGGGLVQAGGSLRLSCAASGSTFVYYAMGLYRQAPGKERELVAAITASGGGTYYADSVKGRFTISRDNAKNPVYLQMNSLKPEVTAVYYCNRGYDYWGQGTQVTVSS
- polyreactivity (PSR sort gate): low polyreactivity

Sequence: QVQLVESGGGLVQAGGSLRLSCAASGSTFVYYAMGWYRQAPGKEREFVAAISYSGGNTYYADSVKGRFTISRDNAMNTVYLQMNSLKPEDTAVYYCAAYYYYFYHKVIWYELDYWGQGTQVTVSS
- polyreactivity (PSR sort gate): low polyreactivity

Sequence: QVQLVESGGGLVQAGGSLRLSCAASGSTFVYYAMGWYRQAPGKERELVAAINYSSGSTYYADSVKGRFTISRDNAKNTVYLQMNSLKPEDTAVYYCATDLLYYQYYSDYDYWGQGTQVTVSS
- polyreactivity (PSR sort gate): high polyreactivity

Sequence: QVQLVESGGGLVQAGGSLRLSCAASGSTFVYYAMGWYRQAPGKERELVAAISSSGGTTYYAVSEKGRFTISRDYGKNTGYLLMNSLKPEDTAVYFCAAPYASRGYEYWGQGTQVTVSS
- polyreactivity (PSR sort gate): high polyreactivity

Sequence: QVQLVESGGGLVQAGGSLRLSCAASGSTFVYYAMGWYRQAPGKERELVAAISWSGTRTYYADSVKGRFTISRDNAKNTVYLQMNSLKPEDTAVYYCAARLRANQVKLYYWGQGTQVTVSS
- polyreactivity (PSR sort gate): high polyreactivity

Sequence: QVQLVESGGGLVQAGGSLRLSCAASGSTFVYYAMGWYRQAPGKERELVAAITASGGRTYYADSVKGRFTISRDNAKNTVYLQMNSLKPEDTAVYYCNTVRPHGMDYWGQGTQVTVSS
- polyreactivity (PSR sort gate): high polyreactivity

Sequence: QVQLVESGGGLVQAGGSLRLSCAASGSTFVYYTMGCYRPAPGKETELVAAINGSGGSTYYADSVKRRFTISRDNAKNTVYLQMNSLKPEDTAVYYCDAVYWDGDDYWGQGTQVTVSS
- polyreactivity (PSR sort gate): high polyreactivity

Sequence: QVQLVESGGGLVQAGGSLRLSCAASGSTFWANAMGWYRPAPGKERELVAGITWNAGSTYYADSVKGRFTISRDNAKNTVYLQMNSLKPEDTAVYYCAAYYHFQGWGPGYNSWGQGTQVTVSS
- polyreactivity (PSR sort gate): low polyreactivity

Sequence: QVQLVESGGGLVQAGGSLRLSCAASGSTFWAYVMGWYRQAPGKERELVASISSGGSTNYADSVKGRFTISRDNAKNTVYLQMNSLKPEDTAVYYCAKRPYPYKYDYWGQGTQVTVSS
- polyreactivity (PSR sort gate): high polyreactivity

Sequence: QVQLVESGGGLVQAGGSLRLSCAASGSTFWDYAMGWYRQAPGKERELVAAINSGDSTNYADSVKGRFTISRDNAKNTVYFQMNSLKPEDTAVYYCNVDWYDKGYGGYDYWGQGTQVTVSS
- polyreactivity (PSR sort gate): low polyreactivity

Sequence: QVQLVESGGGLVQAGGSLRLSCAASGSTFWFNDMGWYRQAPGKEREFVAAISSIGGSTYYADSVKGRFTISRDNAKNTVYLQMNSLKPEDTAVYNCAVEVVRVYRYDYWGQGTQVTVSS
- polyreactivity (PSR sort gate): low polyreactivity

Sequence: QVQLVESGGGLVQAGGSLRLSCAASGSTFWFYALGWYRQAPGKERELVAAISSSGTTTYYADSVKGRFTISRDNAKNTVYLQINSLKPEDTAVSYCAAQYRGSYRTTYDYWGQCTQVTVSS
- polyreactivity (PSR sort gate): low polyreactivity

Sequence: QVQLVESGGGLVQAGGSLRLSCAASGSTFWGNAMGWYRPAPGKERELVAAISNGGSTNYADSVKGRFTISRDNAKNTVNLQMNSLKPEDTAVYYCAADGHTSNGVSLHGYWGQGTQVTVSS
- polyreactivity (PSR sort gate): low polyreactivity

Sequence: QVQLVESGGGLVQAGGSLRLSCAASGSTFWGNAMGWYRQAPGKERELVAAIDWSGGRTYYADSVKGRFTISRDNAKNTVYLQMNSLKPEDTAVYYCATRAWRGYVPYDYWGQGTQVTVSS
- polyreactivity (PSR sort gate): high polyreactivity

Sequence: QVQLVESGGGLVQAGGSLRLSCAASGSTFWGYAMGWYRQAPGKERELVAAINWIGGSDTFYADSVKGRFTISRDNAKNTVYLQMNSLKPEDTAVYYCAATYYNLPYSWGYDYWGQGTQVTVSS
- polyreactivity (PSR sort gate): low polyreactivity
